Columns and labels:
[1] = molecular target: T1, human vascular endothelial growth factor receptor-2 Fc chimera (KDR-Fc) (human, UniProt P35968 20-764); assay: radioactive equilibrium binding assay, 1 nM KDR-Fc, % of input bound
T1 construct: range 1-764; also called human VEGFR-2; not shown: human IgG1 Fc
Experimental: (§1) To prepare ³⁵S-labeled binding proteins for analysis, mRNA was prepared as described above for RNA-protein fusion production but the linker ligation step was omitted. The mRNA was expressed using rabbit reticulocyte lysate translation kit (Ambion) in the presence of ³⁵S-labeled Met at 30° C. for 1 hour. Expressed protein was purified on M2-agarose Flag beads (Sigma) as described above. This procedure produced the encoded protein without the nucleic acid tail. In a direct binding assay, VEGF-R2-Fc fusions in concentrations ranging from 0 to 200 nM were added to a constant concentration of the purified protein (0.2 or 0.5 nM) and incubated at 30° C. for 1 hour in buffer B. The receptor-binder complexes were captured using Protein A magnetic beads for another 10 minutes at room temperature using a Kingfisher™ The beads were washed with six reaction volumes of buffer B. The protein was eluted from the beads with 100 μL of 0.1 M KOH. […] of the reaction mixture and elution were dried onto a LumaPlate-96 (Packard) and the amount of ³⁵S on the plate was measured using a TopCount NXT instrument (Packard). The amount of fibronectin-based scaffold protein bound to the target was estimated as a percent of radioactivity eluted from Protein A magnetic beads compare to radioactivity in the reaction mixture. Nonspecific binding of fibronectin-based scaffold proteins to the beads was determined by measuring binding in the absence of KDR-Fc and represented less than 1-2% of the input. Specific binding was obtained through subtraction of nonspecific binding from total binding. Data was analyzed using the GraphPad Prizm software (GraphPad Software, Inc, San Diego, Calif.), fitted using a one site, non-linear binding equation.

[2] = molecular target: T2, mouse vascular endothelial growth factor receptor-2 Fc chimera (Flk-1-Fc) (mouse, UniProt P35918 20-762); assay: radioactive equilibrium binding assay, 1 nM Flk-1-Fc, % of input bound
T2 construct: Bought from R&D Systems; also called mouse VEGFR-2; not shown: Fc part of the purchased chimera, not specified
Experimental: as §1

T2 sequence (P35918 20-762, change not shown): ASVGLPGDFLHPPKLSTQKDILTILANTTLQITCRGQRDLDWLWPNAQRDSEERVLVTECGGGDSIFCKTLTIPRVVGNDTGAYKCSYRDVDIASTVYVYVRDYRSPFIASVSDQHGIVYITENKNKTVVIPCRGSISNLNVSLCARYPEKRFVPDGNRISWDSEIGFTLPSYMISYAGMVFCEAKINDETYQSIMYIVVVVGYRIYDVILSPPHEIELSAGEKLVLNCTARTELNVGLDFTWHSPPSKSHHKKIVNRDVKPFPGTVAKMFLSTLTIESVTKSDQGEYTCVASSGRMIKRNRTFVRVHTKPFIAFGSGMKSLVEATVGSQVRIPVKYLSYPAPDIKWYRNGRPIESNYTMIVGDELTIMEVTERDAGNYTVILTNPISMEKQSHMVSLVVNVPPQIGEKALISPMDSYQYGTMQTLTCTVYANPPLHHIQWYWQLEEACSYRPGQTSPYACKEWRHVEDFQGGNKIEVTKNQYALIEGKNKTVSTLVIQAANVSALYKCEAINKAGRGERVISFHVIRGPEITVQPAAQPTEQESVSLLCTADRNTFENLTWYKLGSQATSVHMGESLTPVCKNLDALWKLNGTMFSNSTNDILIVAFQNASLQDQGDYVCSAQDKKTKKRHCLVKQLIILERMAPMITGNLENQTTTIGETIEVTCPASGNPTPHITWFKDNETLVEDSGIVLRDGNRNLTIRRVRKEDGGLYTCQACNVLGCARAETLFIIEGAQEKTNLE
T1 sequence (P35968 20-764 limits assumed, change not shown, form in doubt): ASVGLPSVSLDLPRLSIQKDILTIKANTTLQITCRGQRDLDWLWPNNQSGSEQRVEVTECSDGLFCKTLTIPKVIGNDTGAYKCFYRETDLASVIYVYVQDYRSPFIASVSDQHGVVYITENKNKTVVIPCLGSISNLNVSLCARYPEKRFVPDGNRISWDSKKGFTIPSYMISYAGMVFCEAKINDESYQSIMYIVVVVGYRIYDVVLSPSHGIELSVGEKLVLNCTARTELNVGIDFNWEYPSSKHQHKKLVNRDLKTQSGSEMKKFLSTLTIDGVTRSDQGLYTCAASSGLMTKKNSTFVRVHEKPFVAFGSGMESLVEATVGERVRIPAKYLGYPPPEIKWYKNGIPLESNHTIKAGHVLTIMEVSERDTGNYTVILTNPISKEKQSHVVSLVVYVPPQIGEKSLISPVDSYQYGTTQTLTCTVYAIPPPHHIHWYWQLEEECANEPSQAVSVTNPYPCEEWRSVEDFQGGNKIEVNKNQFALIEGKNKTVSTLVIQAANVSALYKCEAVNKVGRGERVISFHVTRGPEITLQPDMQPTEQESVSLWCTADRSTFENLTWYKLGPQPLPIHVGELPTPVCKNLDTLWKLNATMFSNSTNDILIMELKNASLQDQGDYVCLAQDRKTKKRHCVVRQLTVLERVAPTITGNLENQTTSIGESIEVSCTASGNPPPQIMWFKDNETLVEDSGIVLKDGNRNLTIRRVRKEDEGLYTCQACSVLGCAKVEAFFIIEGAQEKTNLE

Binder | Binding to 1 nM KDR, % [1] | Binding to 1 nM Flk-1, % [2]
B5 (designed binder, 10Fn3 clone, Del 1-8) EVVAATPTSLLISWRHPHFPTRYYRITYGETGGNSPVQEFTVPLQPPTATISGLKPGVDYTITGYAVTQERNGRELMTPISINYRT | 27% | 24%
C3 (designed binder, 10Fn3 clone, Del 1-8) EVVAATPTSLLISWRHPHFPTRYYRITYGETGGNSPVQEFTVPLQPPTATISGLKPGVDYTITGYAVTLERNGRELMIPISINYRT | 31% | 17%
C9 (designed binder, 10Fn3 clone, Del 1-8) EVVAATPTSLLISWRHPHFPTRYYRITYGETGGNSPVQEFTVPLQPPTATISGLKPGVDYTITGYAVTVERNGLVLMTPISINYRT | 33% | 7%
E8 (designed binder, 10Fn3 clone, Del 1-8) EVVAATPTSLLISWRHPHFPTRYYRITYGETGGNSPVQEFTVPLQPPTATISGLKPGVDYTITGYAVTEEWNGRVLMTPISINYRT | 51% | 10%
D12 (designed binder, 10Fn3 clone, Del 1-8) EVVAATPTSLLISWRHPHFPTRYYRITYGETGGNSPVQEFTVPLQPPTATISGLKPGVDYTITGYAVTVERNGRKLMTPISINYRT | 46% | 47%
C10 (designed binder, 10Fn3 clone, Del 1-8) EVVAATPTSLLISWRHPHFPTRYYRITYGETGGNSPVQEFTVPLQPPTATISGLKPGVDYTITGYAVTVERNGRVLIIPISINYRT | 24% | 17%
E10 (designed binder) EVVAATPTSLLISWRHPHFPTRYYRITYGETGGNSPVQEFTVPLQPPTATISGLKPGVDYTITGYAVTEGRNGRELFIPISINYRT | 53% | 3%
B10 (designed binder, 10Fn3 clone, Del 1-8) EVVAATPTSLLISWRHPHFPTRYYRITYGETGGNSPVQEFTVPLQPPTATISGLKPGVDYTITGYAVTLERNGRELNTPISINYRT | 15% | 23%
C2 (designed binder, 10Fn3 clone, Del 1-8) EVVAATPTSLLISWRHPHFPTRYYRITYGETGGNSPVQEFTVPLQPPTATISGLKPGVDYTITGYAVTVERNGRELLWPISINYRT | 40% | 16%
C8 (designed binder, 10Fn3 clone, Del 1-8) EVVAATPTSLLISWRHPHFPTRYYRITYGETGGNSPVQEFTVPLQPPTATISGLKPGVDYTITGYAVTLERNGRVLITPISINYRT | 30% | 34%
D4 (designed binder, 10Fn3 clone, Del 1-8) EVVAATPTSLLISWRHPHFPTRYYRITYGETGGNSPVQEFTVPLQPPTATISGLKPGVDYTITGYAVTVERNGRTLFTPISINYRT | 27% | 44%
B7, B8 (designed binder, 10Fn3 clone, Del 1-8) EVVAATPTSLLISWRHPHFPTRYYRITYGETGGNSPVQEFTVPLQPPTATISGLKPGVDYTITGYAVTVERNGRELLTPISINYRT | 18% | 10%
C12 (designed binder, 10Fn3 clone, Del 1-8) EVVAATPTSLLISWRHPHFPTRYYRITYGETGGNSPVQEFTVPLQPPTATISGLKPGVDYTITGYAVTVERNGRVLSVPISINYRT | 24% | 20%
D2 (designed binder, 10Fn3 clone, Del 1-8) EVVAATPTSLLISWRHPHFPTRYYRITYGETGGNSPVQEFTVPLQPPTATISGLKPGVDYTITGYAVTVERNGRNLMTPISINYRT | 35% | 30%
D7 (designed binder, 10Fn3 clone, Del 1-8) EVVAATPTSLLISWRHPHFPTRYYRITYGETGGNSPVQEFTVPLQPPTATISGLKPGVDYTITGYAVTVERNGKVLMTPISINYRT | 39% | 27%
D5 (designed binder, 10Fn3 clone, Del 1-8) EVVAATPTSLLISWRHPHFPTRYYRITYGETGGNSPVQEFTVPLQPPTATISGLKPGVDYTITGYAVTVERNGRTLMMPISINYRT | 38% | 23%

Binder | Binding to 1 nM KDR, % [1] | Binding to 1 nM Flk-1, % [2]
B6 (designed binder, 10Fn3 clone, Del 1-8) EVVAATPTSLLISWRHPHFPTRYYRITYGETGGNSPVQEFTVPLQPPTATISGLKPGVDYTITGYAVTLERNGKELMTPISINYRT | 23% | 11%
E14 (designed binder, 10Fn3 clone, Del 1-8) EVVAATPTSLLISWRHPHFPTRYYRITYGETGGNSPVQEFTVPLQPPTATISGLKPGVDYTITGYAVTLERNGQVLFTPISINYRT | 33% | 11%
D9 (designed binder, 10Fn3 clone, Del 1-8) EVVAATPTSLLISWRHPHFPTRYYRITYGETGGNSPVQEFTVPLQPPTATISGLKPGVDYTITGYAVTEERNGRVLFTPISINYRT | 31% | 40%
E13 (designed binder, 10Fn3 clone, Del 1-8) EVVAATPTSLLISWRHPHFPTRYYRITYGETGGNSPVQEFTVPLQPPTATISGLKPGVDYTITGYAVTLEQNGRELMTPISINYRT | 38% | 1%
D6 (designed binder, 10Fn3 clone, Del 1-8) EVVAATPTSLLISWRHPHFPTRYYRITYGETGGNSPVQEFTVPLQPPTATISGLKPGVDYTITGYAVTVERNGKTLMTPISINYRT | 32% | 30%
C1 (designed binder, 10Fn3 clone, Del 1-8) EVVAATPTSLLISWRHPHFPTRYYRITYGETGGNSPVQEFTVPLQPPTATISGLKPGVDYTITGYAVTQERNGRELRTPISINYRT | 28% | 13%
D3 (designed binder, 10Fn3 clone, Del 1-8) EVVAATPTSLLISWRHPHFPTRYYRITYGETGGNSPVQEFTVPLQPPTATISGLKPGVDYTITGYAVTVERNGRALMTPISINYRT | 36% | 30%
C11 (designed binder, 10Fn3 clone, Del 1-8) EVVAATPTSLLISWRHPHFPTRYYRITYGETGGNSPVQEFTVPLQPPTATISGLKPGVDYTITGYAVTVERNGRVLIVPISINYRT | 19% | 21%
D11 (designed binder, 10Fn3 clone, Del 1-8) EVVAATPTSLLISWRHPHFPTRYYRITYGETGGNSPVQEFTVPLQPPTATISGLKPGVDYTITGYAVTVERNGHKLFTPISINYRT | 24% | 3%
D1 (designed binder, 10Fn3 clone, Del 1-8) EVVAATPTSLLISWRHPHFPTRYYRITYGETGGNSPVQEFTVPLQPPTATISGLKPGVDYTITGYAVTVERNGRMLMTPISINYRT | 38% | 38%
B12 (designed binder, 10Fn3 clone, Del 1-8) EVVAATPTSLLISWRHPHFPTRYYRITYGETGGNSPVQEFTVPLQPPTATISGLKPGVDYTITGYAVTVERNGRELRTPISINYRT | 29% | 24%
E15 (designed binder, 10Fn3 clone, Del 1-8) EVVAATPTSLLISWRHPHFPTRYYRITYGETGGNSPVQEFTVPLQPPTATISGLKPGVDYTITGYAVTLEPNGRYLMVPISINYRT | 52% | 2%
C6 (designed binder, 10Fn3 clone, Del 1-8) EVVAATPTSLLISWRHPHFPTRYYRITYGETGGNSPVQEFTVPLQPPTATISGLKPGVDYTITGYAVTLERNGRVLMTPISINYRT | 36% | 49%
C7 (designed binder, 10Fn3 clone, Del 1-8) EVVAATPTSLLISWRHPHFPTRYYRITYGETGGNSPVQEFTVPLQPPTATISGLKPGVDYTITGYAVTHERNGRVLMTPISINYRT | 32% | 40%
E12 (designed binder, 10Fn3 clone, Del 1-8) EVVAATPTSLLISWRHPHFPTRYYRITYGETGGNSPVQEFTVPLQPPTATISGLKPGVDYTITGYAVTFARDGHEILTPISINYRT | 36% | 1%

Source: US20140179896A1 (published 2014)
